B1: IgG1-F1098 (antibody)
heavy: QVQLQESGPGLVKPSETLSLTCAVSGHSISHDHAWSWVRQPPGEGLEWIGFISYSGITNYNPSLQGRVTISRDNSKNTLYLQMNSLRAEDTAVYYCARSLARTTAMDYWGEGTLVTVSSASTKGPSVFPLAPSSKSTSGGTAALGCLVKDYFPEPVTVSWNSGALTSGVHTFPAVLQSSGLYSLSSVVTVPSSSLGTQTYICNVNHKPSNTKVDKKVEPKSCDKTHTCPPCPAPELLGGPDVFLFPPKPKDTLYISRTPEVTCVVVDVSHEDPEVKFNWYVDGVEVHNAKTKPREEQYNSTYRVVSVLTVLHQDWLNGKEYKCKVSNKALPAPIEKTISKAKGQPREPQVYTLPPSRDELTKNQVSLTCLVKGFYPSDIAVEWESNGQPENNYKTTPPVLDSDGSFFLYSKLTVDKSRWQQGNVFSCSVMHEALHYHYTQKSLSLSP
light: not shown
notes: EU numbering; copies: 2 + 2
B2: IgG1-F1129 (antibody)
heavy: B1 heavy with D241S, T309Q, Q313H, Y438V
light: not shown
notes: EU numbering; copies: 2 + 2
B3: IgG1-F1137 (antibody)
heavy: B1 heavy with L237R, D241K, V424S, S426R, Y438V
light: not shown
notes: EU numbering; copies: 2 + 2
B4: IgG1-F1100 (antibody)
heavy: B1 heavy with K328D, L330Y
light: not shown
notes: EU numbering; copies: 2 + 2
B5: IgG1-F1135 (antibody)
heavy: B1 heavy with L237R, D241K, Y438V, S442E
light: not shown
notes: EU numbering; copies: 2 + 2
B6: IgG1-F1144 (antibody)
heavy: B1 heavy with L237R, D241K, T252V, T309Q, V310P, Q313A, Y438V, Q440R, S442E
light: not shown
notes: EU numbering; copies: 2 + 2
B7: IgG1-F1123 (antibody)
heavy: B1 heavy with D241S, T252V, T309Q, V310P, Q313A, Y438V, S442E
light: not shown
notes: EU numbering; copies: 2 + 2
B8: IgG1-F1130 (antibody)
heavy: B1 heavy with D241S, T309A, Q313A, Y438V
light: not shown
notes: EU numbering; copies: 2 + 2
B9: IgG1-F1152 (antibody)
heavy: B1 heavy with L237R, D241K, T309Q, Q313A, S426N
light: not shown
notes: EU numbering; copies: 2 + 2
B10: IgG1-F1115 (antibody)
heavy: B1 heavy with D241S, S426N, Y438V
light: not shown
notes: EU numbering; copies: 2 + 2
B11: IgG1-F1117 (antibody)
heavy: B1 heavy with D241S, T252V, T309Q, Q313A, S426N, Y438V
light: not shown
notes: EU numbering; copies: 2 + 2
B12: IgG1-F1140 (antibody)
heavy: B1 heavy with D241S, V424E, S426R, Y438V, Q440R, S442E
light: not shown
notes: EU numbering; copies: 2 + 2
B13: IgG1-F1143 (antibody)
heavy: B1 heavy with L237R, D241K, V424S, S426R, Y438V, Q440R, S442E
light: not shown
notes: EU numbering; copies: 2 + 2
B14: IgG1-F1141 (antibody)
heavy: B1 heavy with D241S, V424S, S426R, Y438V, Q440R, S442E
light: not shown
notes: EU numbering; copies: 2 + 2
B15: IgG1-F1102 (antibody)
heavy: B1 heavy with D241S, T309Q, Q313A, K328D, L330Y
light: not shown
notes: EU numbering; copies: 2 + 2
B16: IgG1-F1111 (antibody)
heavy: B1 heavy with D241S, S426K, Y438V
light: not shown
notes: EU numbering; copies: 2 + 2
B17: IgG1-F1103 (antibody)
heavy: B1 heavy with T309Q, Q313A, K328D, L330Y
light: not shown
notes: EU numbering; copies: 2 + 2
B18: IgG1-F1146 (antibody)
heavy: B1 heavy with L237R, D241K, T252V, T309Q, Q313A, Y438V, Q440R, S442E
light: not shown
notes: EU numbering; copies: 2 + 2
B19: IgG1-F1119 (antibody)
heavy: B1 heavy with D241S, T252V, T309Q, V310P, Q313A, V424E, Y438V
light: not shown
notes: EU numbering; copies: 2 + 2
B20: IgG1-F1136 (antibody)
heavy: B1 heavy with L237R, D241K, V424E, S426R, Y438V
light: not shown
notes: EU numbering; copies: 2 + 2
B21: IgG1-F1157 (antibody)
heavy: B1 heavy with D241S, Q440R, S442E
light: not shown
notes: EU numbering; copies: 2 + 2
B22: IgG1-F1125 (antibody)
heavy: B1 heavy with D241S, T309Q, Y438V
light: not shown
notes: EU numbering; copies: 2 + 2
B23: IgG1-F1134 (antibody)
heavy: B1 heavy with L237R, D241K, Y438V, Q440R
light: not shown
notes: EU numbering; copies: 2 + 2
B24: IgG1-F1121 (antibody)
heavy: B1 heavy with D241S, T252V, T309Q, V310P, Q313A, V424E, S426R, Y438V
light: not shown
notes: EU numbering; copies: 2 + 2
B25: IgG1-F1108 (antibody)
heavy: B1 heavy with D241S, V424K, Y438V
light: not shown
notes: EU numbering; copies: 2 + 2
B26: IgG1-F1126 (antibody)
heavy: B1 heavy with D241S, T309A, Y438V
light: not shown
notes: EU numbering; copies: 2 + 2
B27: IgG1-F1133 (antibody)
heavy: B1 heavy with L237R, D241K, S426R, Y438V
light: not shown
notes: EU numbering; copies: 2 + 2
B28: IgG1-F1122 (antibody)
heavy: B1 heavy with D241S, T252V, T309Q, V310P, Q313A, Y438V, Q440R
light: not shown
notes: EU numbering; copies: 2 + 2
B29: IgG1-F1109 (antibody)
heavy: B1 heavy with D241S, V424T, Y438V
light: not shown
notes: EU numbering; copies: 2 + 2
B30: IgG1-F1124 (antibody)
heavy: B1 heavy with D241S, T252V, T309Q, V310P, Q313A, Y438V, Q440R, S442E
light: not shown
notes: EU numbering; copies: 2 + 2
B31: IgG1-F1112 (antibody)
heavy: B1 heavy with D241S, Y438V, Q440K
light: not shown
notes: EU numbering; copies: 2 + 2
B32: IgG1-F1139 (antibody)
heavy: B1 heavy with L237R, D241K, S426N, Y438V
light: not shown
notes: EU numbering; copies: 2 + 2
B33: IgG1-F1147 (antibody)
heavy: B1 heavy with D241S, T309Q, Q313A, Q440R, S442E
light: not shown
notes: EU numbering; copies: 2 + 2
B34: IgG1-F1132 (antibody)
heavy: B1 heavy with L237R, D241K, V424S, Y438V
light: not shown
notes: EU numbering; copies: 2 + 2
B35: IgG1-F1104 (antibody)
heavy: B1 heavy with D241S, V424E, S426R, Y438V
light: not shown
notes: EU numbering; copies: 2 + 2
B36: IgG1-F1148 (antibody)
heavy: B1 heavy with L237R, D241K, T309Q, Q313A, Q440R, S442E
light: not shown
notes: EU numbering; copies: 2 + 2
B37: IgG1-F1120 (antibody)
heavy: B1 heavy with D241S, T252V, T309Q, V310P, Q313A, S426R, Y438V
light: not shown
notes: EU numbering; copies: 2 + 2
B38: IgG1-F1142 (antibody)
heavy: B1 heavy with L237R, D241K, V424E, S426R, Y438V, Q440R, S442E
light: not shown
notes: EU numbering; copies: 2 + 2
B39: IgG1-F1105 (antibody)
heavy: B1 heavy with D241S, V424S, S426R, Y438V
light: not shown
notes: EU numbering; copies: 2 + 2
B40: IgG1-F1106 (antibody)
heavy: B1 heavy with D241S, Y438V, Q440R, S442E
light: not shown
notes: EU numbering; copies: 2 + 2
B41: IgG1-F1158 (antibody)
heavy: B1 heavy with L237R, D241K, Q440R, S442E
light: not shown
notes: EU numbering; copies: 2 + 2
B42: IgG1-F1127 (antibody)
heavy: B1 heavy with D241S, Q313A, Y438V
light: not shown
notes: EU numbering; copies: 2 + 2
B43: IgG1-F1154 (antibody)
heavy: B1 heavy with L237R, D241K, T252V, T309Q, V310P, Q313A, S426N, Y438V
light: not shown
notes: EU numbering; copies: 2 + 2
B44: IgG1-F1138 (antibody)
heavy: B1 heavy with L237R, D241K, Y438V, Q440R, S442E
light: not shown
notes: EU numbering; copies: 2 + 2
B45: IgG1-F1110 (antibody)
heavy: B1 heavy with D241S, V424Q, Y438V
light: not shown
notes: EU numbering; copies: 2 + 2
B46: IgG1-F1116 (antibody)
heavy: B1 heavy with D241S, T309Q, Q313A, S426N
light: not shown
notes: EU numbering; copies: 2 + 2
B47: IgG1-F1118 (antibody)
heavy: B1 heavy with D241S, T252V, T309Q, V310P, Q313A, S426N, Y438V
light: not shown
notes: EU numbering; copies: 2 + 2
B48: IgG1-F1114 (antibody)
heavy: B1 heavy with D241S, Y438V, S442Q
light: not shown
notes: EU numbering; copies: 2 + 2
B49: IgG1-F1107 (antibody)
heavy: B1 heavy with D241S, V424D, Y438V
light: not shown
notes: EU numbering; copies: 2 + 2
B50: IgG1-F1128 (antibody)
heavy: B1 heavy with D241S, Q313H, Y438V
light: not shown
notes: EU numbering; copies: 2 + 2
B51: IgG1-F1101 (antibody)
heavy: B1 heavy with T309Q, Q313A
light: not shown
notes: EU numbering; copies: 2 + 2
B52: IgG1-F1131 (antibody)
heavy: B1 heavy with L237R, D241K, V424E, Y438V
light: not shown
notes: EU numbering; copies: 2 + 2
B53: IgG1-F1151 (antibody)
heavy: B1 heavy with L237R, D241K, S426N
light: not shown
notes: EU numbering; copies: 2 + 2
B54: IgG1-F1145 (antibody)
heavy: B1 heavy with D241S, T252V, T309Q, Q313A, Y438V, Q440R, S442E
light: not shown
notes: EU numbering; copies: 2 + 2
B55: IgG1-F1153 (antibody)
heavy: B1 heavy with L237R, D241K, T252V, T309Q, Q313A, S426N, Y438V
light: not shown
notes: EU numbering; copies: 2 + 2

Numbering of substitutions follows the chain as printed.

We go through 55 molecules from patent publication US20200199241A1 (Chugai, published 2020).
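Further: test antibodies captured on a Protein L chip with human FcRn flowed over as analyte, KD obtained as the ratio of dissociation to association rate constants.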

T1 sequence (chain, as listed by the source limits assumed, chain 1 of 2): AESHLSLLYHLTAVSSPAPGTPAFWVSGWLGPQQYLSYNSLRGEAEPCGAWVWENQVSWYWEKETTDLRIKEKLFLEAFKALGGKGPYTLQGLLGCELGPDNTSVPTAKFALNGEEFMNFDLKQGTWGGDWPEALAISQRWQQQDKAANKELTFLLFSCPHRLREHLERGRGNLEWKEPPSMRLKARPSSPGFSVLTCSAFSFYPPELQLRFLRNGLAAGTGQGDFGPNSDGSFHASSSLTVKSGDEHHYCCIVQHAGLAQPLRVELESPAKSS
T1 sequence (P61769 21-119 limits assumed, chain 2 of 2): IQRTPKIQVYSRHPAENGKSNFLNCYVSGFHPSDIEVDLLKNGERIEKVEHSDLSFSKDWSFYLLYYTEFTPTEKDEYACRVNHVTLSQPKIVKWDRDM

The assay addresses T1, soluble human FcRn complexed with β2-microglobulin (human, UniProt P61769 21-119, limits assumed).
T1 construct: also called hFcRn
Description: Biacore SPR, pH 7.0. (SPR reads the build-up and loss of mass on a sensor chip optically.)
Molecule B1 yielded a dissociation constant (Kd) of 258 nM.

B2 yielded a Kd of 44.8 nM. In the case of B3 it was 158 nM; in that of B4, 241 nM. In the case of B5 it was 126 nM; in that of B6, 14.4 nM; in that of B7, 9.55 nM. Next, B8: 55.4 nM; B9: 73.8 nM. Consider B10, for which the affinity, expressed as Kd, was 135 nM.

Consider B11, for which binding was put at a Kd of 48.7 nM. In the case of B12 it was 162 nM. In the case of B13 it was 198 nM; in that of B14, 177 nM; in that of B15, 64.6 nM. Turning to B16, the affinity, expressed as Kd, was 165 nM. Next, B17: 61.1 nM; B18: 62.4 nM. Next, B19: 10.3 nM; B20: 163 nM; B21: 209 nM. In the case of B22 it was 51.8 nM; in that of B23, 166 nM; in that of B24, 10.4 nM. Molecule B25 registered a Kd of 126 nM. Next, B26: 89.5 nM; B27: 158 nM; B28: 13.7 nM.

With B29, the Kd was determined as 127 nM. B30 showed a Kd of 12.2 nM. In the case of B31 it was 123 nM; in that of B32, 152 nM.

With B33, the dissociation constant (Kd) came to 71.9 nM. In the case of B34 it was 140 nM. The molecule B35 registered a Kd of 177 nM. B36 displayed a Kd of 76.3 nM. Next, B37: 10.4 nM. In turn, B38 had a dissociation constant Kd of 187 nM. Next, B39: 154 nM; B40: 142 nM. Next, B41: 244 nM; B42: 79.4 nM. In the case of B43 it was 13.4 nM.

Molecule B44 displayed a dissociation constant (Kd) of 165 nM. Next, B45: 133 nM; B46: 74.4 nM. B47: the affinity, expressed as Kd, was 13.2 nM.

Turning to B48, the Kd amounted to 131 nM. In the case of B49 it was 123 nM; in that of B50, 117 nM. Next, B51: 65.9 nM. Next, B52: 129 nM; B53: 251 nM.

The molecule B54 had a Kd of 52.3 nM. Next, B55: 48.5 nM.

What is called Kd is the constant that tells how readily two partners part at equilibrium. Low values mean higher affinity, high ones lower affinity.
